Ends that are not written are not given here. * marks the point of attachment. Palmitoyl = CCCCCCCCCCCCCCCC(=O)*
Legend:
[1] = 100 μL subcutaneous, shoulder; 0 hour to 7 days; FIG. 3
Protocol: 20 μL of 10 mg/mL DMSO stock solution of rhodamine-labeled, fatty-acidified E7 polypeptide (sequence: palmitic acid-[sequence], rhodamine labeled in amino acid K, synthesized in Jill Biochemical Co., Ltd.) is added to 1 mL of sterile water to obtain a fluorescent polypeptide solution with the concentration of 0.2 mg/mL.
10 mg of PEG-PE powder is weighed and dissolved in 1 mL of chloroform in a test tube, and 0.2 mL of solution of rhodamine-labeled, fatty-acidified E7 polypeptide in methanol (1 mg/mL) is taken such that in micelle. The solution is gently shaken according to the method in Embodiment 1 to mix evenly. Nitrogen is used to blow and dry the solution to form a uniform thin membrane. The residual organic solvent and moisture are completely removed in a vacuum drier overnight. 1 mL of sterile normal saline is added, and 53° C. water bath incubation is conducted for 30 minutes for hydrated lipid membrane. A light purple uniform transparent solution is obtained, in which the concentration of fluorescent polypeptide is 0.2 mg/mL. […]
7 mg of DPPC and 3 mg of cholesterol are dissolved in chloroform separately and then mixed in a test tube, and 0.2 mL of solution of rhodamine-labeled, fatty-acidified E7 polypeptide in methanol (1 mg/mL) is taken. […] The concentration of fluorescence polypeptide is 0.2 mg/mL. […]

[2] = Entrapment efficiency of fatty-acidified antigenic polypeptide in PEG-PE micelle (centrifugation, rhodamine fluorescence); assay type: physicochemical; details: lipid:MPLA (w/w) 100:1
Protocol: According to the proportions shown in Table 2 and Table 3, the micelles containing different proportions of polypeptides are prepared. The preparation process is carried out in the same manner as described in Embodiment 1. The prepared micelle vaccine solutions of different proportions are subjected to 14,000 g high-speed centrifugation for 30 minutes. The undissolved free antigenic polypeptide is separated from the antigen entrapped by micelle in the solution.
The maximal excitation wavelength of the rhodamine fluorescence labeled by the polypeptide is 535 nm and the maximum emission wavelength is 590 nm.
The antigen content in the solution is detected by fluorescence spectrophotometry, and then the effective entrapment efficiency of antigenic polypeptide is calculated according to the formula (see Table 2. Table 3, line 3). It can be seen that, in the condition where the mass ratio of PEG-PE to the fatty-acid-modified polypeptide is greater than or equal to 10:1, the entrapment efficiency is about 100%.

[3] = water / aqueous solution
Protocol: Thus, free antigenic polypeptide can be separated from the antigenic polypeptide loaded on micelle, and then the entrapment efficiency of antigenic polypeptide is calculated based on the change in the content of the antigenic polypeptide loaded on micelle in the solution. The entrapment efficiency=the amount of antigen to be entrapped/total antigen ×100%.

| Substance | subcutaneous diffusion / localized retention at injection site [1] | entrapment efficiency (%) ([2]; lipid:peptide (w/w) 1:1) | entrapment efficiency (%) ([2]; lipid:peptide (w/w) 2:1) | entrapment efficiency (%) ([2]; lipid:peptide (w/w) 5:1) | entrapment efficiency (%) ([2]; lipid:peptide (w/w) 10:1) | entrapment efficiency (%) ([2]; lipid:peptide (w/w) 20:1) | entrapment efficiency (%) ([2]; lipid:peptide (w/w) 50:1) | solubility / state in water [3] |
| --- | --- | --- | --- | --- | --- | --- | --- | --- |
| palmitic acid-GQAEPDRAHYNIVTFCCKCD (Palmitoyl-GQAEPDRAHYNIVTFCCKCD; cysteine pairing not given here) [E7 Antigenic Polypeptide] | subcutaneous localized retention at the injection site is evident | 25.48 | 67.76 | 97.99 | 100.00 | 100.00 | 100.00 | present in an aggregated form in aqueous solution |
| palmitic acid-EQLESIINFEKLTEWKD (Palmitoyl-EQLESIINFEKLTEWKD) [OT-1 Antigenic Polypeptide] |  | 27.91 | 40.10 | 91.76 | 100.00 | 100.00 | 100.00 |  |
